Results published in US20230265198A1 (TWIST BIOSCIENCE, published 2023).

B1: NRP1-44 (VHH)
VHH: EVQLVESGGGLVQPGGSLRLSCAASGRSFSTYIMGWFRQAPGKERELVARITSGGYTYADSVKGRFTISADNSKNTAYLQMNSLKPEDTAVYYCAADVSPSYGSRWYWGQGTLVTVSS
B2: NRP1-251 (antibody, IgG2, V domains shown)
VH: EVQLLESGGGLVQPGGSLRLSCAASGSTFSSHAMSWVRQAPGKGLEWVSGISASGGSTHYADSVKGRFTISRDNSKNTLYLQMNSLRAEDTAVYYCARLKRGGTNLVRKATRYQFYGMDAWGQGTLVTVSS
VL: DIQMTQSPSSLSASVGDRVTITCRASQSVSSHLNWYQQKPGKAPKLLIYDASSLQSGVPSRFSGSGSGTDFTLTISSLQPEDFATYYCQQSYKTPVTFGGGTKVEIK
B3: NRP1-296 (antibody, IgG2, V domains shown)
VH: EVQLLESGGGLVQPGGSLRLSCAASGFTFSGHAMSWVRQAPGKGLEWVSGISGSGGKIYYADSVKGRFTISRDNSKNTLYLQMNSLRAEDTAVYYCTRDVRSKDYVRGSSRYHGGMDVWGQGTLVTVSS
VL: DIQMTQSPSSLSASVGDRVTITCRASHSISRYLNWYQQKPGKAPKLLIYSASSLRSGVPSRFSGSGSGTDFTLTISSLQPEDFATYYCQQRYITPWTFGGGTKVEIK
B4: NRP1-277 (antibody, IgG2, V domains shown)
VH: EVQLLESGGGLVQPGGSLRLSCAASGFRFSTYAMSWVRQAPGKGLEWVSTVSGSGAYTYYADSVKGRFTISRDNSKNTLYLQMNSLRAEDTAVYYCADIAVAGTWGQGTLVTVSS
VL: DIQMTQSPSSLSASVGDRVTITCRASQRISDYLNWYQQKPGKAPKLLIYAASTLQSGVPSRFSGSGSGTDFTLTISSLQPEDFATYYCQQSFSTPITFGGGTKVEIK
B5: NRP1-253 (antibody, IgG2, V domains shown)
VH: EVQLLESGGGLVQPGGSLRLSCAASGFTFSNHAMSWVRQAPGKGLEWVSTISGSGGSTYYVDSVKGRFTISRDNSKNTLYLQMNSLRAEDTAVYYCARGGPAPLFDYWGQGTLVTVSS
VL: DIQMTQSPSSLSASVGDRVTITCRSSQSISSYLNWYQQKPGKAPKLLIYAASNFQSGVPSRFSGSGSGTDFTLTISSLQPEDFATYYCQQTYSIPLTFGGGTKVEIK
B6: NRP1-269 (antibody, IgG2, V domains shown)
VH: EVQLLESGGGLVQPGGSLRLSCAASGFTFSNYVMTWVRQAPGKGLEWVSTISGSGGGTFYADSVKGRFTISRDNSKNTLYLQMNSLRAEDTAVYYCATDTVWASAWGSWGQGTLVTVSS
VL: DIQMTQSPSSLSASVGDRVTITCRASQTIRKYLNWYQQKPGKAPKLLIYAASSLQSGVPSRFSGSGSGTDFTLTISSMQPEDFATYYCQQSYSTPITFGGGTKVEIK
B7: NRP1-297 (antibody, IgG2, V domains shown)
VH: EVQLLESGGGLVQPGGSLRLSCAASGFTFGRYAMSWVRQAPGKGLEWVSSISGSGGSTYYTDSVKGRFTISRDNSKNTLYLQMNSLRAEDTAVYYCVRALAGRRDHWGQGTLVTVSS
VL: DIQMTQSPSSLSASVGDRVTITCRTSQRISTSLNWYQQKPGKAPKLLIYGASNLQSGAPSRFSGSGSGTDFTLTISSLQPEDFATYYCQQSYFTPITFGGGTKVEIK
B8: NRP1-263 (antibody, IgG2, V domains shown)
VH: EVQLLESGGGLVQPGGSLRLSCAASGFTFKKYAMSWVRQAPGKGLEWVSTISGSGRSTYYADSVKGRFTISRDNSKNTLYLQMNSLRAEDTAVYYCARDLARGTMPRGVIIPHNWFDPWGQGTLVTVSS
VL: DIQMTQSPSSLSASVGDRVTITCRASQTISNYLNWYQQKPGKAPKLLIYGATSLQSGVPSRFSGSGSGTDFTLTISSLQPEDFATYYCQQSYNTPTTFGGGTKVEIK
B9: NRP1-43 (VHH)
VHH: EVQLVESGGGLVQPGGSLRLSCAASGYFASWYYMGWFRQAPGKEREWVATIYSPSGSAVYADSVKGRFTISADNSKNTAYLQMNSLKPEDTAVYYCARDSFYDGSGYSPWGQGTLVTVSS

Each binder was assayed against neuropilin-1 (NRP1) on HEK293 cells overexpressing NRP1 (UniProt O14786) (assay: flow cytometry, HEK293-NRP1 vs HEK293).
For B1, the 100 nM FACS (MFI Ratio) was 1.6.
B2 was tested, and the 100 nM FACS (MFI Ratio) was 1.5.
With B3 the 100 nM FACS (MFI Ratio) was 1.5.
B4 was tested, and the 100 nM FACS (MFI Ratio) was 1.5.
B5 gave a 100 nM FACS (MFI Ratio) of 1.5.
With B6 the 100 nM FACS (MFI Ratio) was 1.9.
B7 showed a 100 nM FACS (MFI Ratio) of 1.6.
With B8 the 100 nM FACS (MFI Ratio) was 1.9.
B9 gave a 100 nM FACS (MFI Ratio) of 1.5.
